Paper PMC3335157

Tests used:
[1] = biological target: Full-length αvβ3 integrin (UniProt P06756)
[2] = biological target: Full-length αvβ3 integrin (UniProt P06756); test: SPR; BIAcore T100; αvβ3 integrin immobilised via primary amines on a CM5 chip (1341-2655 RU); NC1 α4(IV) injected at several concentrations and flow rates; 25°C; 10 mM Hepes pH 7.4, 150 mM NaCl, 1 mM MgCl2, 2 mM MnCl2, 50 mM β-octyl-D-glucopyranoside; global fit, two-state model

Chain of UniProt P06756 (P06756 31-1048, chain 1 of 2): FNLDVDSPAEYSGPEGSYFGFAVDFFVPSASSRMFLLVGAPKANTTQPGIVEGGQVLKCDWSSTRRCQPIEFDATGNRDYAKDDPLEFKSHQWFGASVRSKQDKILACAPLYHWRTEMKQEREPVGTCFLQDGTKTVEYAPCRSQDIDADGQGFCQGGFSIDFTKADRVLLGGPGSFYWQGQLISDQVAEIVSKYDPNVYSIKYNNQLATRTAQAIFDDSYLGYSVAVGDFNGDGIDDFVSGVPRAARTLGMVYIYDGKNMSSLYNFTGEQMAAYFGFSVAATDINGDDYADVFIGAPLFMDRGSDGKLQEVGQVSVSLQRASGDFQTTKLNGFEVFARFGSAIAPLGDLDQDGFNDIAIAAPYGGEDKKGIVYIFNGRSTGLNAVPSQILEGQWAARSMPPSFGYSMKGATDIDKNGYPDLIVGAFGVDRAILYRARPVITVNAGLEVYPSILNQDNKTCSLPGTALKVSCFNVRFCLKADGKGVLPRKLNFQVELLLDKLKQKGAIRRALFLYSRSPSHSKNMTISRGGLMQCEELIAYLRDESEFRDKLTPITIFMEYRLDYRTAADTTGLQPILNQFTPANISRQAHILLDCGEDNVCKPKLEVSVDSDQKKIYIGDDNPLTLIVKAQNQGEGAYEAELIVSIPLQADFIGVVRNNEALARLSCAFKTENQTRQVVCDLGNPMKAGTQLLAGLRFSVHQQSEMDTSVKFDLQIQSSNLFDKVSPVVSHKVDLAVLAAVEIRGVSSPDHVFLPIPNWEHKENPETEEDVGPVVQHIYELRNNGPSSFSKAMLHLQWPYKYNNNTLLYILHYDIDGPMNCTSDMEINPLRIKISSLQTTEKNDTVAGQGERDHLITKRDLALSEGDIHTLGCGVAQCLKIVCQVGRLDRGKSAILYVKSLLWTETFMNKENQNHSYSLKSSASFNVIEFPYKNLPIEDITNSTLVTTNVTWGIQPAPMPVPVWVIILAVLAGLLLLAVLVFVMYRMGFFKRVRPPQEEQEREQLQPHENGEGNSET
Chain of UniProt P06756 (P05106 27-788, chain 2 of 2, further chain): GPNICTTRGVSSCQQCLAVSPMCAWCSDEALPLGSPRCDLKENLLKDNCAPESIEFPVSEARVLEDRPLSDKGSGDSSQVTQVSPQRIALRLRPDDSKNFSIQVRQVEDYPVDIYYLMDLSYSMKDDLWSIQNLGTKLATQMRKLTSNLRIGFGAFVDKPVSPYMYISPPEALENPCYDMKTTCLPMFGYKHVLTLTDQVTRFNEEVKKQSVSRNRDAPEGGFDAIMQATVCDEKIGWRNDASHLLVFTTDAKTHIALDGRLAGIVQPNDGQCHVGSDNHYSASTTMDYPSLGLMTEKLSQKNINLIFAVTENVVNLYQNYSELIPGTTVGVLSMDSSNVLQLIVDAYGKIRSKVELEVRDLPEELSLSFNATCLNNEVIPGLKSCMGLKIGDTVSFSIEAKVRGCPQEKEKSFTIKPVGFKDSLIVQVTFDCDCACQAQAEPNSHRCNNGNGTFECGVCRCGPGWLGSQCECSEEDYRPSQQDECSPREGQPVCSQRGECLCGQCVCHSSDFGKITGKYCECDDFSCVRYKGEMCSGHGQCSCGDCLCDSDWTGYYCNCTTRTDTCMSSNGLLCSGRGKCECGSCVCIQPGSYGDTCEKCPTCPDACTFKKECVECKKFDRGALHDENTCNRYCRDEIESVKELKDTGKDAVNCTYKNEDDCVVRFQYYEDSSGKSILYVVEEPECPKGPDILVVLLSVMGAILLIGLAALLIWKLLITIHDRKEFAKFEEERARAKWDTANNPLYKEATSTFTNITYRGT

- adhesion of UACC-903 melanoma cells on recombinant NC1 α4(IV) substratum; change after preincubation of the cells with an anti-αvβ3 integrin blocking antibody (10 µg/mL); irrelevant IgG had no effect [1]: -38%
- Kd [2]: 148 nM
Substance: Recombinant human NC1 α4(IV) domain (NC1[α4(IV)1-229]) (domain or fragment)
